Results on four molecules are retold here after patent US8013137B2, “Modified enteropeptidase protein” (National University Corporation Hokkaido University, priority 2006, dated 2011).

Data set [1] deals with GD4K-βNA and the three MCA-containing substrates. The experiment in a line: Specific activities of wild-type and mutant EP protease using synthetic peptide substrates (FIG. 3A). The data set is classed as biochemical. The procedure: (A) The specific activities of wild-type (EP-1) and mutant EP protease were determined using synthetic peptide substrates. (B) High-molecular-weight (HMW) kininogen (5 μg) was incubated with active EP proteases (100 ng) at 37° C. for 2 h and analyzed by SDS-PAGE. (C) Fibrinogen (10 μg) was incubated with active EP proteases (100 ng) at 37° C. for 12 h and analyzed by SDS-PAGE.
(§1) EP activity was routinely determined using the specific substrate Gly-Asp-Asp-Asp-Asp-Lys-β-naphthylamide (GD4K-βNA) (SEQ ID NO: 6) (Sigma) according to the method of Mikhailova and Rumsh (Mikhailova et al., FEBS Lett., 442:226-230 (1999)). Enzyme activity for various 4-methylcoumaryl-7-amide (MCA)-containing peptide substrates was determined by the method of Barrett (Barrett et al., J., Biochem. J., 187:909-912 (1980)). For kinetic studies, initial velocities, extrapolated from the plot of product versus time, were transformed into double-reciprocal plots (Lineweaver et al., J. Am. Chem. Soc., 56:658-663 (1934)). The maximum velocities (Vmax) and Km and kcat values were obtained from the intercepts of these plots. For all experiments, the results of at least three separate determinations are shown.

Another data set has as its system GD4K-βNA. Put plainly: EP activity and kinetic study with specific substrate GD4K-βNA. The data set is classed as biochemical. To be noted: serine protease domain; FIG. 8B. How it is done:
(A) Active recombinant EP proteases were assayed using a GD4K-βNA (SEQ ID NO: 6) substrate as a substrate. Bovine (Nvg), bovine EP protease available from Novagen; Bovine (Neb), bovine EP protease available from NEB. (B) Active recombinant EP proteases were assayed using various synthetic peptide substrates. (C) Active EP proteases were analyzed by gelatin zymography. (D) Fibronectin (4 μg) was incubated with active EPs (100 ng) at 37° C. for 12 h. (E) Laminin ((10 μg) was incubated with active recombinant EPs (100 ng) at 37° C. for 12 h. (F) Two μg of the control protein containing the D4K site (SEQ ID NO: 1) was incubated with active recombinant EPs (100 ng) at 37° C. for 1 h.
(A) The purity of purified recombinant Medaka EP-1 and EP-2 protease was assessed by SDS-PAGE. Lane 1, Medaka EP fusion protein; lane 2, Medaka EP protease treated with immobilized trypsin; lane 3, Medaka EP protease purified using a resource Q column. (B) The enzyme activities of EP proteases were determined at various pHs using GD4K-βNA (SEQ ID NO: 6) as a substrate. (C) Recombinant Medaka trypsinogen was incubated at 37° C. with EPs for 15, 30 and 45 min. After incubation, samples were analyzed by SDS-PAGE and visualized by CBB staining (upper panel). The relative amount of the active form of Medaka trypsin at each time point were calculated based on the results shown in the upper panel (lower panel). The results are presented as the means (±SD) of three separate experiments.
as §1

B1: F144S: Medaka EP-1 protease mutant, substitution F144S (protein)
chain: CGQRQVYNSKENNGVPRVVGGVNAEKGAWPWMVSLHWRGRHGCGASLIGRDWLLTAAHCVYGKNTHLQYWSAVLGLHAQSSMNSQEVQIRQVDRIIINKNYNRRTKEADIAMMHLQQPVNFTEWVLPVCLASEDQHFPAGRRCSIAGWGRDAEGGSLPDILQEAEVPLVDQDECQRLLPEYTFTSSMLCAGYPEGGVDSCQGDSGGPLMCLEDARWTLIGVTSFGVGCGRPERPGAYARVSAFTSWIAETRRSSFSDLD
On to B1, for which the “enzyme activity for synthetic peptide substrates compared with the wild-type enzyme” value in data set [1] is recorded as “reduced enzyme activity for synthetic peptide substrates”.

B2: F144A: Medaka EP-1 protease mutant, substitution F144A (protein)
chain: CGQRQVYNSKENNGVPRVVGGVNAEKGAWPWMVSLHWRGRHGCGASLIGRDWLLTAAHCVYGKNTHLQYWSAVLGLHAQSSMNSQEVQIRQVDRIIINKNYNRRTKEADIAMMHLQQPVNFTEWVLPVCLASEDQHFPAGRRCAIAGWGRDAEGGSLPDILQEAEVPLVDQDECQRLLPEYTFTSSMLCAGYPEGGVDSCQGDSGGPLMCLEDARWTLIGVTSFGVGCGRPERPGAYARVSAFTSWIAETRRSSFSDLD
B2: in data set [1], the “enzyme activity for synthetic peptide substrates compared with the wild-type enzyme” value was “at an elevated rate when compared with the wild-type enzyme”.

B3: E173K: Medaka EP-1 protease mutant, substitution E173K (protein)
chain: CGQRQVYNSKENNGVPRVVGGVNAEKGAWPWMVSLHWRGRHGCGASLIGRDWLLTAAHCVYGKNTHLQYWSAVLGLHAQSSMNSQEVQIRQVDRIIINKNYNRRTKEADIAMMHLQQPVNFTEWVLPVCLASEDQHFPAGRRCFIAGWGRDAEGGSLPDILQEAEVPLVDQDKCQRLLPEYTFTSSMLCAGYPEGGVDSCQGDSGGPLMCLEDARWTLIGVTSFGVGCGRPERPGAYARVSAFTSWIAETRRSSFSDLD
For the molecule B3, the “enzyme activity for synthetic peptide substrates compared with the wild-type enzyme” value in data set [1] is recorded as “reduced enzyme activity for synthetic peptide substrates”.

B4: EP-2: recombinant serine protease domain of Medaka enteropeptidase-2 (AB272105) (protein)
chain: MKRRLTNLEVLLTVTTSLFAVCCVCLIVVSCIGLKPEGAAEPVQLIGQMVITAGAAFSEELRNSSSHLFKSLAFDVQQLVSDAFGASELRLLYRSFRVLYFRPGSIAVTFDLEFNQQIDLNEVKQQLGEGLQQIEDGALVIDVDSIQITEKPSSTTPEPTSTTGHITTETMPITGHTTPAATPTAASCPPDHSLCWDRSTCVLTDVLCDGVSDCPDASDENSSRCATTCDGQFVLGGPNGTFRSSETETYRNNSNCRWIIRMDGGLSVQVNFHHFETEEYSDVLKLYEGVGPHKQLAAELSGPSPPGTVLLLNNQVTVEFTSDGVNDLSGFRASYVAVNTSSLSNQEKLSCSFDQGFCFWRQLQDSFDTWIRTNVPTFPPLTGPNFDHTFGNSSGFYIVTSLSPGQWLKSFVINSLPLAPSSHPTCLSFWYHMFGEDVYRLRVLLRPSQPELTEVVLFHKEGNFGDNWNYAQITLNLSTESTVVFEAQKEGGNQNDIALDDISLRSEGCGPAPPEPTNVPLPTTAAPIPPDCGGPFDLWEPNSTFTSPNYPQSYGDGAECLWTLHAEKGQNIQLHFLDFDVEATYDVVEVRDGAGLNSTLLAVLSGSDGPTRDLYSTDNQMTVWFYTDSGGFGRGFRANFTSGVNLGSQAPCTNGQFQCQTGDCIHGDRQCDGVADCPDGYDEADCVALQVNGSHRLHFLLLRSLLTVCADTWDSELSDFTCQYLGYRSGEESLQSVLPQDAAFAVVTVSSNGTLETQVRETCSSGEVISLNCSNQPCGQRQVYNHGDQSENSKENNGVPRVVGGVNAEKGAWPWMVSLHWRGRHGCGASLIGRDWLLTAAHCVYGKNTHLQYWSAVLGLHAQSSMNSQEVQIRQVDRIIINKNYNRRTKEADIAMMHLQQPVNFTEWVLPVCLASEGQHFPAGRRCFIAGWGRDAEGGSLPDILQEAEVPLVDQDECQRLLPEYTFTSSMLCAGYPEGGVDSCQGDSGGPLMCLEDARWTLIGVTSFGVGCGRPERPGAYARVSAFASWIAETRRSSFSDLD
modifications: Oryzias latipes
As for B4, in the data set on GD4K-βNA, the “pH of maximal activity for GD4K-βNA” value came out at 8.
